Assay results reported in article PMC12455930, “LEF-6 phosphorylation regulates the binding and trafficking of baculovirus late gene transcripts”.

T1: LEF6 82-173 (Autographa californica multiple …, UniProt S5G646 82-173)
T1 sequence: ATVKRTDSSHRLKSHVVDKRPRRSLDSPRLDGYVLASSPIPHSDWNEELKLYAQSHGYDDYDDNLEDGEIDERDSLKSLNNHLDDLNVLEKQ

T2: LEF6 1-90 (High Five) (Autographa californica multiple …, UniProt S5G646 1-90)
T2 sequence: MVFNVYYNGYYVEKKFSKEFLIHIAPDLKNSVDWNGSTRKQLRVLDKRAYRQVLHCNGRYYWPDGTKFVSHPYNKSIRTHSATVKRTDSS

T3: LEF6 1-90 (E. coli) (Autographa californica multiple …, UniProt S5G646 1-90)
T3 sequence: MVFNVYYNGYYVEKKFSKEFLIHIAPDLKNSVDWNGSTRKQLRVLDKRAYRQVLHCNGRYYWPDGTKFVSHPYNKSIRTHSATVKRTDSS

T4: LEF-6 (non-phosphorylated, E. coli) (Autographa californica multiple …, UniProt S5G646 1-173)
T4 sequence: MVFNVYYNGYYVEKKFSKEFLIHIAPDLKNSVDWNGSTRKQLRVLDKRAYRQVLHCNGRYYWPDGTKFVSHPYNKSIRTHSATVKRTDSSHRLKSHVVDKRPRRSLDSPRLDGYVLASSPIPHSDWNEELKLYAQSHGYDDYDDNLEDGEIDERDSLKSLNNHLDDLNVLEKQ

T5: LEF6 1-90 (host not stated) (Autographa californica multiple …, UniProt S5G646 1-90)
T5 sequence: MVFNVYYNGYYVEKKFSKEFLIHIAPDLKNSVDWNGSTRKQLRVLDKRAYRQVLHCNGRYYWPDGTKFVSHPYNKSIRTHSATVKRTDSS


How the values were obtained:
LEF6 82-173 = target: T1, LEF6 82-173; assay: EMSA; Anisotropy: 20 mM Tris-HCl pH 7.5, 20 mM NaCl, 5 nM FAM-ssRNA, 28 C; EMSA: 10 mM Tris pH 7.5, 20 mM KCl, 1 mM MgCl2, 1 mM DTT, 20 uM RNA, 22 C, 1% agarose/TAE.; conditions: protein: recombinant; tags: His; label: FAM (anisotropy); EMSA detected by ethidium bromide
LEF6 1-90 (High Five) = target: T2, LEF6 1-90 (High Five); assay: as above; conditions: protein: recombinant; tags: His; label: FAM (anisotropy); EMSA detected by ethidium bromide
LEF6 1-90 (E. coli) = target: T3, LEF6 1-90 (E. coli); assay: as above; conditions: protein: recombinant; tags: His; label: FAM (anisotropy); EMSA detected by ethidium bromide
[1] = target: T4, LEF-6 (non-phosphorylated, E. coli); assay: fluorescence anisotropy; Anisotropy: 20 mM Tris-HCl pH 7.5, 20 mM NaCl, 5 nM FAM-ssRNA, 28 C; EMSA: 10 mM Tris pH 7.5, 20 mM KCl, 1 mM MgCl2, 1 mM DTT, 20 uM RNA, 22 C, 1% agarose/TAE.; conditions: protein: recombinant, tags: His
[2] = target: T5, LEF6 1-90 (host not stated); assay: as above; conditions: protein: recombinant, tags: His
[3] = label: FAM (anisotropy), EMSA detected by ethidium bromide

Binder	binding result (LEF6 82-173)	binding result (LEF6 1-90 (High Five))	binding result (LEF6 1-90 (E. coli))	binding result [1, 3]	binding result [2, 3]	binding result ([1]; label: FAM)	binding result ([2]; label: FAM)
GACAGGUCGCCGAAGUUACAGAACACG (ssRNA) [p6.9 ssRNA]	no binding	binds	binds	binds	binds	–	–
CGGUUUGCCCGCUCAAUUGACCGAUCU (ssRNA) [p10 ssRNA]	–	–	–	binds	binds	–	–
UUAUAACCAUCCCACCCCGGAUGGAGC (ssRNA) [ie1 ssRNA]	–	–	–	–	–	binds	binds
UUUUUUUUUUCUCUGCUCGACG (ssRNA) [unrelated ssRNA]	–	–	–	–	–	binds	binds
